From article PMC12069552, “Root stem cell homeostasis in Arabidopsis involves cell-type specific transcription factor complexes” (EMBO Reports, 2025) come the findings set out here.

Assay [1] deals with BRAVO-mVenus (BRASSINOSTEROIDS AT VASCULAR AND ORGANIZING CENTRE) (Arabidopsis thaliana) (UniProt Q6R053). Nature of the assay: FRET or BRET; FRET-FLIM in nuclei of transiently expressing N. benthamiana epidermal leaf cells; mVenus fusion as donor, mCherry fusion as acceptor; 'binding' [%] is the amplitude of the FRET component (number of donor molecules undergoing FRET); binding cutoff 10%; a binding not significantly different from the negative control (mCherry-NLS) is regarded as no interaction. Background: In BRET a luciferase serves as donor, and the signal depends on an acceptor being close.

For assay [2], the target named is WOX5-mV(N) PLT3-mV(C) heterodimer (BiFC donor) (Arabidopsis thaliana) (UniProt Q8H1D2). Nature of the assay: split reporter (BiFC, NanoBiT) + FRET or BRET; BiFC-FRET-FLIM in nuclei of N. benthamiana epidermal leaf cells; mVenus donor split into mV(N) and mV(C) on two proteins, third protein with mCherry as acceptor; 'binding' [%]; binding cutoff 10%.
In assay [3] the target is T1, BRAVO-mV(N) PLT3-mV(C) heterodimer (BiFC donor) (Arabidopsis thaliana, UniProt Q6R053 1-323; Q52QU2 1-581).
T1 construct: BRAVO, R2R3-MYB transcription factor of Arabidopsis thaliana; the CDS amplified from cDNA; PLETHORA 3 (PLT3) of Arabidopsis thaliana; the CDS, described in Burkart et al, 2022; The two halves of mVenus are reconstituted in the heterodimer, which serves as FRET donor; source: N. benthamiana abaxial epidermal leaf cells, transiently co-expressed, in cells
T1 sequence (looked up) 1: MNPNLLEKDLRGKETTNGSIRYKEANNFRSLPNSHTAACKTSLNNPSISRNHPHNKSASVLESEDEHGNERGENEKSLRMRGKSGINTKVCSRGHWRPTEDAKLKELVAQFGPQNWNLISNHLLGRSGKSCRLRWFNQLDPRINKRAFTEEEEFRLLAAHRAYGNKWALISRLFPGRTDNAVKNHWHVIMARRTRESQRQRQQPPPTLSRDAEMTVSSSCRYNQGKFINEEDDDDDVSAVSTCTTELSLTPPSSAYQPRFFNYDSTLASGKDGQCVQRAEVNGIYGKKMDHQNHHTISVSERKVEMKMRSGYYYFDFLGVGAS
T1 sequence (looked up) 2: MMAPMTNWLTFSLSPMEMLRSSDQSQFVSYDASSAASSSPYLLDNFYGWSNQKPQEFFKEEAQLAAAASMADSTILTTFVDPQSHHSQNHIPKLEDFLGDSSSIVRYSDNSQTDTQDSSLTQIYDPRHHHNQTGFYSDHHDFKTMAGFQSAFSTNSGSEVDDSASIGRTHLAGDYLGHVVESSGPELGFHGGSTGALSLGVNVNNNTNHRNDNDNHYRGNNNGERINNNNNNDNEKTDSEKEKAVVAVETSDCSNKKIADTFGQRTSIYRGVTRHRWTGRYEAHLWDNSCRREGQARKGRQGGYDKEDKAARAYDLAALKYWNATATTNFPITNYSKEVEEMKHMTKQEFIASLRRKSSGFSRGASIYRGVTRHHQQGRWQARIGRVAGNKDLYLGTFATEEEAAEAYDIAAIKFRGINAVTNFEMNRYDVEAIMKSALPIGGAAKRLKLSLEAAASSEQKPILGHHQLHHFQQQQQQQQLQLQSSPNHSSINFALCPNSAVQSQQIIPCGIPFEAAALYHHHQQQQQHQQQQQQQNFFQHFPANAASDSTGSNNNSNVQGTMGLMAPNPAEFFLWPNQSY
Described as above. The note with it: partners not purified.

In assay [4] the target is T2, WOX5-mV(N) PLT3-mV(C) heterodimer (BiFC donor) (Arabidopsis thaliana, UniProt Q8H1D2 1-182; Q52QU2 1-581).
T2 construct: WUSCHEL-RELATED HOMEOBOX 5 (WOX5) of Arabidopsis thaliana; the CDS, described in Burkart et al, 2022; PLETHORA 3 (PLT3) of Arabidopsis thaliana; The two halves of mVenus are reconstituted in the heterodimer, which serves as FRET donor; also called heterodimer of WOX5 and PLT3; source: N. benthamiana abaxial epidermal leaf cells, transiently co-expressed, in cells
T2 sequence (looked up) 1: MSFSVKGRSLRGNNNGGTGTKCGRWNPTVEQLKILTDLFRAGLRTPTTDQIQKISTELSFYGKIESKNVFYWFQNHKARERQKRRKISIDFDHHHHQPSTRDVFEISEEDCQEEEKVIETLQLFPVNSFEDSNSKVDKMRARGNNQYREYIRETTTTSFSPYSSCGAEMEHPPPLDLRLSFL
T2 sequence (looked up) 2: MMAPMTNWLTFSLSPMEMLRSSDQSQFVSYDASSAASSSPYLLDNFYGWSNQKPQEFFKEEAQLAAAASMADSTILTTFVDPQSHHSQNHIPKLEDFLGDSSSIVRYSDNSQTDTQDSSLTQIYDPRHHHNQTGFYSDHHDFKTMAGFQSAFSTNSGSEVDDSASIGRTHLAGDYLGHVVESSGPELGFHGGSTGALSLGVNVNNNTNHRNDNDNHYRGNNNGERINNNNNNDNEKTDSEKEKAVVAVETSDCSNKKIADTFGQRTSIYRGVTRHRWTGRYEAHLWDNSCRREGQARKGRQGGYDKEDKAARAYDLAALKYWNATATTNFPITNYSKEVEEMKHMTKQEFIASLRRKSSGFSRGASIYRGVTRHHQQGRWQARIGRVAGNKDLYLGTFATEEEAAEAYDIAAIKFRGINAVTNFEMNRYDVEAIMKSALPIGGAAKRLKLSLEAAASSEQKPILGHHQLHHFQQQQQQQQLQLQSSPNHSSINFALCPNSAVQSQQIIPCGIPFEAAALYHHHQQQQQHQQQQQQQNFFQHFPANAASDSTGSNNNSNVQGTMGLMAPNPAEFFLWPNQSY
The assay is described as above. The note with it: partners not purified.

Assay [5] concerns the target T3, BRAVO-mVenus (BRASSINOSTEROIDS AT VASCULAR AND ORGANIZING CENTRE) (Arabidopsis thaliana, UniProt Q6R053 1-323).
T3 construct: BRAVO, R2R3-MYB transcription factor of Arabidopsis thaliana; the CDS amplified from cDNA; FRET donor; source: N. benthamiana abaxial epidermal leaf cells, transiently expressed (β-estradiol inducible promoter), in cells
T3 sequence (looked up): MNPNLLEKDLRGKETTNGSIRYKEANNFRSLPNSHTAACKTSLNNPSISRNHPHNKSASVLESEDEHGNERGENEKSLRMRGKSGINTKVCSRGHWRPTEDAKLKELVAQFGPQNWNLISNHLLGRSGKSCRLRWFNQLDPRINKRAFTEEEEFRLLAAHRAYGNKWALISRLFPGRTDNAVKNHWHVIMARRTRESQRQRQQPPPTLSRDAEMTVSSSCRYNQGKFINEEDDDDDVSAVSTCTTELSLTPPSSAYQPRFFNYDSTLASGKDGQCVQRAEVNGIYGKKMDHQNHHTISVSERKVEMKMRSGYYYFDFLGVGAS
Nature of the assay: FRET or BRET; FRET-FLIM in nuclei of transiently expressing N. benthamiana epidermal leaf cells; mVenus fusion as donor, mCherry fusion as acceptor; 'binding' [%] is the amplitude of the FRET component (number of donor molecules undergoing FRET); binding cutoff 10%; a binding not significantly different from the negative control (mCherry-NLS) is regarded as no interaction. The settings on record: partners not purified.

For the molecule “BES1D-mCherry (BRI1-EMS-SUPPRESSOR 1, BES1D form) (from UniProt Q9LN63 1-335) (natural protein)”, the binding (FRET-FLIM, share of donor molecules undergoing FRET) in assay [1] stood at 27.4%; in assay [2], 18.7%.

B1: TPL-mCherry (TOPLESS) (natural protein, Arabidopsis thaliana, UniProt Q94AI7 1-1131, looked up)
chain: MSSLSRELVFLILQFLDEEKFKETVHKLEQESGFFFNMKYFEDEVHNGNWDEVEKYLSGFTKVDDNRYSMKIFFEIRKQKYLEALDKHDRPKAVDILVKDLKVFSTFNEELFKEITQLLTLENFRENEQLSKYGDTKSARAIMLVELKKLIEANPLFRDKLQFPTLRNSRLRTLINQSLNWQHQLCKNPRPNPDIKTLFVDHSCGPPNGARAPSPVNNPLLGGIPKAGGFPPLGAHGPFQPTASPVPTPLAGWMSSPSSVPHPAVSAGAIALGGPSIPAALKHPRTPPTNASLDYPSADSEHVSKRTRPMGISDEVNLGVNMLPMSFSGQAHGHSPAFKAPDDLPKTVARTLSQGSSPMSMDFHPIKQTLLLVGTNVGDIGLWEVGSRERLVQKTFKVWDLSKCSMPLQAALVKEPVVSVNRVIWSPDGSLFGVAYSRHIVQLYSYHGGEDMRQHLEIDAHVGGVNDISFSTPNKQLCVITCGDDKTIKVWDAATGVKRHTFEGHEAPVYSVCPHYKENIQFIFSTALDGKIKAWLYDNMGSRVDYDAPGRWCTTMAYSADGTRLFSCGTSKDGESFIVEWNESEGAVKRTYQGFHKRSLGVVQFDTTKNRYLAAGDDFSIKFWDMDAVQLLTAIDGDGGLQASPRIRFNKEGSLLAVSGNENVIKIMANSDGLRLLHTFENISSESSKPAINSIAAAAAAAATSAGHADRSANVVSIQGMNGDSRNMVDVKPVITEESNDKSKIWKLTEVSEPSQCRSLRLPENLRVAKISRLIFTNSGNAILALASNAIHLLWKWQRNERNATGKATASLPPQQWQPASGILMTNDVAETNPEEAVPCFALSKNDSYVMSASGGKISLFNMMTFKTMATFMPPPPAATFLAFHPQDNNIIAIGMDDSTIQIYNVRVDEVKSKLKGHSKRITGLAFSNVLNVLVSSGADAQLCVWNTDGWEKQRSKVLPLPQGRPNSAPSDTRVQFHQDQAHFLVVHETQLAIYETTKLECMKQWAVRESLAPITHATFSCDSQLVYASFMDATVCVFSSANLRLRCRVNPSAYLPASLSNSNVHPLVIAAHPQEPNMFAVGLSDGGVHIFEPLESEGKWGVAPPAENGSASGAPTAPSVGASASDQPQR
notes: TOPLESS (TPL) of Arabidopsis thaliana; the CDS amplified from cDNA; FRET acceptor; source: N. benthamiana abaxial epidermal leaf cells, transiently expressed (β-estradiol inducible), in cells
Take B1: the “binding (FRET-FLIM, share of donor molecules undergoing FRET)” value (“binding” for short) in assay [3] amounted to 21.1 ± 8.3%; in assay [4], 23.3 ± 8.3%; in assay [5], 26.7 ± 9.8%.

B2: WOX5-mCherry (WUSCHEL-RELATED HOMEOBOX 5) (natural protein, Arabidopsis thaliana, UniProt Q8H1D2 1-182, looked up)
chain: MSFSVKGRSLRGNNNGGTGTKCGRWNPTVEQLKILTDLFRAGLRTPTTDQIQKISTELSFYGKIESKNVFYWFQNHKARERQKRRKISIDFDHHHHQPSTRDVFEISEEDCQEEEKVIETLQLFPVNSFEDSNSKVDKMRARGNNQYREYIRETTTTSFSPYSSCGAEMEHPPPLDLRLSFL
notes: WUSCHEL-RELATED HOMEOBOX 5 (WOX5), homeodomain transcription factor of Arabidopsis thaliana; the CDS, described in Burkart et al, 2022; FRET acceptor; construct XVE:WOX5-mCherry of Burkart et al, 2022; source: N. benthamiana abaxial epidermal leaf cells, transiently expressed (β-estradiol inducible), in cells
Regarding B2, the “binding” value was 29.8 ± 10.6% in assay [3] and 22.4 ± 14.1% in assay [5].

B3: BRAVO-mCherry (natural protein, Arabidopsis thaliana, UniProt Q6R053 1-323, looked up)
chain: MNPNLLEKDLRGKETTNGSIRYKEANNFRSLPNSHTAACKTSLNNPSISRNHPHNKSASVLESEDEHGNERGENEKSLRMRGKSGINTKVCSRGHWRPTEDAKLKELVAQFGPQNWNLISNHLLGRSGKSCRLRWFNQLDPRINKRAFTEEEEFRLLAAHRAYGNKWALISRLFPGRTDNAVKNHWHVIMARRTRESQRQRQQPPPTLSRDAEMTVSSSCRYNQGKFINEEDDDDDVSAVSTCTTELSLTPPSSAYQPRFFNYDSTLASGKDGQCVQRAEVNGIYGKKMDHQNHHTISVSERKVEMKMRSGYYYFDFLGVGAS
notes: BRAVO, R2R3-MYB transcription factor of Arabidopsis thaliana; the CDS amplified from cDNA; FRET acceptor; source: N. benthamiana abaxial epidermal leaf cells, transiently expressed (β-estradiol inducible), in cells
As to B3, in assay [4], the “binding” value came to 36.3 ± 10.7%.
